From patent publication US5726154A, “Stabilization and oral delivery of calcitonin” (University of Utah Research Foundation, priority 1996, dated 1998)

Key:
[1] = in water at room temperature; cited from earlier work
[2] = Stability of hCT upon storage in liquid formulations (precipitate, gel or turbidity indicative of fibrillation); type: physicochemical; settings: bile salts (0.5-1.0%: taurocholate, deoxycholate, glycocholate), neutral or acidic pH
Protocol: As used herein, "stable," "stabilizing," and similar terms refer to inhibiting the precipitation, fibrillation, or gelation of human calcitonin molecules upon storage in a liquid medium at a temperature of about 4°-25° C. Human calcitonin is considered "stable" or "stabilized" in a selected liquid medium when no precipitation, fibrillation, or gellation is detected upon storage at a temperature of about 4°-25° C. for a period of at least about 6 months.
Since hCT is highly unstable in aqueous solutions of neutral or basic pH, acidic formulations were investigated to determine whether increased stability could be obtained. […]
Samples (1-2 ml) containing 0.2-10 mg/ml of hCT in aqueous formulations were prepared and then maintained in 4 ml borosilicate vials at ambient temperature or at 4° C. […] In some cases, the concentration of unaggregated hCT was determined using reversed-phase HPLC (Waters modular system with Waters model 745 integrator, Bedford, Mass.) on a Vydac C4 column (4.6 mm×25 cm) equilibrated at a flow rate of 1 ml/min with 0.1% (v/v) trifluoroacetic acid containing 30% (v/v) acetonitrile. […] Absorbance (at 220 nm) of the eluent was recorded and processed to quantify the amount of hCT injected. […]

[3] = 5 mg/ml hCT in 0.0001%-1.0% acetic acid; could not be duplicated by the applicant; cited from earlier work
[4] = Reversed-phase HPLC analysis of unaggregated hCT in formulations; type: physicochemical; settings: 0.01% acetic acid containing 1.0% SDS; 8 months of storage at ambient temperature
Protocol: Samples (1-2 ml) containing 0.2-10 mg/ml of hCT in aqueous formulations were prepared and then maintained in 4 ml borosilicate vials at ambient temperature or at 4° C. The samples were checked periodically for the presence of a precipitate, a gel, or turbidity, which are indicative of fibrillation. In cases of formulations in which the hCT was very unstable, changes in turbidity could be followed over time by spectrophotometry at 340 nm. T. Arvinte et al., The structure and mechanism of formation of human calcitonin fibrils, 268 J. Biol. Chem. 6415-22 (1993), hereby incorporated by reference. In some cases, the concentration of unaggregated hCT was determined using reversed-phase HPLC (Waters modular system with Waters model 745 integrator, Bedford, Mass.) on a Vydac C4 column (4.6 mm×25 cm) equilibrated at a flow rate of 1 ml/min with 0.1% (v/v) trifluoroacetic acid containing 30% (v/v) acetonitrile. Five minutes after injection of a 100 μl sample, a linear gradient of 0.67% acetonitrile/min was applied. Absorbance (at 220 nm) of the eluent was recorded and processed to quantify the amount of hCT injected.
HPLC analysis of hCT in 0.01% acetic acid or in 0.01% acetic acid containing 1.0% SDS was performed to determine the state and concentration of unaggregated hCT in such formulations. […]

Molecule | Critical micelle concentration (CMC) [1] [%] | Time to gel formation [2] [h] | Period of stable formulation reported by EP 490549 [3] [months] | HPLC profiles and UV spectra after storage [4]
CCCCCCCCCCCCOS(=O)(=O)[O-].[Na+] [SDS, sodium dodecyl sulfate] | 0.24 | – | – | –
Human calcitonin [hCT] | – | ≤ 1 | 8 | not altered
